Earlier results, collected in paper PMC8699243.
Like-named read-outs stand apart in the source and are kept apart here.

What was measured:
S100A10 (Homo sapiens) = S100A10 (Homo sapiens) (UniProt P60903)
S100A4 (Homo sapiens) = S100A4 (Homo sapiens) (UniProt P26447)
t-PA (Homo sapiens) [1] = molecular target: t-PA (Homo sapiens) (UniProt P00750)
[2] = molecular target: plasminogen (Homo sapiens) (UniProt P00747)
t-PA (Homo sapiens) [3] = molecular target: t-PA (Homo sapiens) (UniProt P00750); remark: listed apart in the source
[4] = molecular target: plasminogen (Homo sapiens) (UniProt P00747); remark: listed apart in the source

UniProt P00747, sequence (P00747 20-810): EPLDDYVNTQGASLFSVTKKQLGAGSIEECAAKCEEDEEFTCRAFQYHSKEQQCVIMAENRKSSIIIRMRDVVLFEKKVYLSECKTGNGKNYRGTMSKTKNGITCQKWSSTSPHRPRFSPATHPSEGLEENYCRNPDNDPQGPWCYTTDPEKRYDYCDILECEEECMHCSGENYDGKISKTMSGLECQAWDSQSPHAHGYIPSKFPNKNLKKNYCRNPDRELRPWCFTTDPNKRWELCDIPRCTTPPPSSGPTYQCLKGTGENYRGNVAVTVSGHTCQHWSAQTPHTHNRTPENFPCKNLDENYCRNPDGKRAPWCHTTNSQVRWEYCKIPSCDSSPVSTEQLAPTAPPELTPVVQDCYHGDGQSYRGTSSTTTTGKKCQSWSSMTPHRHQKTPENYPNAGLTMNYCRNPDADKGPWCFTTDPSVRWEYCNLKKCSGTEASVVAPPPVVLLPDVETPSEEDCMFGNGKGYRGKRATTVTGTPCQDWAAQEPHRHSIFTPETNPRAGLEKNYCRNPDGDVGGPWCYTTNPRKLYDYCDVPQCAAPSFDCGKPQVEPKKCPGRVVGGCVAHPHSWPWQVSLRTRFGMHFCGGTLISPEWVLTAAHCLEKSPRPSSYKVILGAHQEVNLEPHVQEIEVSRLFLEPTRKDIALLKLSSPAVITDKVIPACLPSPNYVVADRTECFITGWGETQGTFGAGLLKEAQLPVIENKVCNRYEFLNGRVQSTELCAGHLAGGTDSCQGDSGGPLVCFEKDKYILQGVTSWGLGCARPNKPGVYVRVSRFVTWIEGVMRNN
UniProt P00750, sequence (P00750 36-562): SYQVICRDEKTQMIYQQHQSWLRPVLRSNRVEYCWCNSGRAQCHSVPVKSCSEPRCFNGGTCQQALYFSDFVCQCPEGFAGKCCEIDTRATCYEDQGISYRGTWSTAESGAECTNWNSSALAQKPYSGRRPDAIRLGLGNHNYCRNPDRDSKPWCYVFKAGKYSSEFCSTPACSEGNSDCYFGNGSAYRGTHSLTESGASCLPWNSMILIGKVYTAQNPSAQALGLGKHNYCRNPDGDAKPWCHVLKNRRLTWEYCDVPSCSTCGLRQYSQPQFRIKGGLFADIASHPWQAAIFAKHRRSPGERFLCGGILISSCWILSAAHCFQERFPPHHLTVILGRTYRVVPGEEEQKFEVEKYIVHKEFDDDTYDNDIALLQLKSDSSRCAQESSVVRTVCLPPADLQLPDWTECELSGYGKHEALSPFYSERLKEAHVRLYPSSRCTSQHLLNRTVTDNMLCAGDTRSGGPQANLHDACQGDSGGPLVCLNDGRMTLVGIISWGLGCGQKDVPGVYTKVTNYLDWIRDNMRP
UniProt P26447, sequence (P26447 2-101): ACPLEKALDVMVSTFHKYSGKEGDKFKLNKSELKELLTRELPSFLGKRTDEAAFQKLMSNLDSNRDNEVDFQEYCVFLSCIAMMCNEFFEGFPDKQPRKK

## Annexin A2 (from UniProt P07355)
S100A10 (Homo sapiens)
  Kd: 13 nM
S100A4 (Homo sapiens)
  Kd: 5000 nM

## AIIt (Annexin A2/S100A10 heterotetramer) (from UniProt P07355)
t-PA (Homo sapiens) [1]
  Kd: 680 nM
[2]
  Kd: 110 nM

## S100A10 (from UniProt P60903)
t-PA (Homo sapiens) [3]
  Kd: 450 nM
[4]
  Kd: 1810 nM
